Assay results published in the supplement of paper PMC5998384.

Experiments:
HeLa Kyoto [1] = test: melting temperature (median over replicates), in situ; higher = more thermally stable
HeLa Kyoto [2] = test: thermal stability score vs G1/S (z-score of summed log2 fold changes over temperatures); higher = more thermally stable than in G1/S
HeLa Kyoto [3] = test: solubility in G1/S (NP-40 vs SDS abundance) (log2 ratio); higher = more soluble; conditions: cell cycle stage: G1/S
HeLa Kyoto [4] = test: solubility change mitosis vs G1/S (difference of NP-40 vs SDS log2 ratios) (log2 ratio difference); higher = more soluble in mitosis
[5] = cell cycle stage: early G1 (4.5 h after nocodazole release)
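Throughout, for melting temperature (median over replicates), in situ: HeLa Kyoto cells synchronized by double thymidine or nocodazole block, proteins quantified by TMT10plex mass spectrometry, three independent biological replicates.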
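Throughout, for solubility change mitosis vs G1/S (difference of NP-40 vs SDS log2 ratios): synchronized HeLa Kyoto cells (double thymidine block for G1/S, nocodazole release for mitosis), protein amounts in NP-40 versus SDS lysates quantified by mass spectrometry, three biological replicates.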
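Throughout, for solubility in G1/S (NP-40 vs SDS abundance): HeLa Kyoto cells arrested at G1/S by double thymidine block, proteins quantified by TMT10plex mass spectrometry in mild NP-40 versus SDS extracts, three biological replicates.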
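Throughout, for thermal stability score vs G1/S (z-score of summed log2 fold changes over temperatures): synchronized HeLa Kyoto cells, proteins quantified by TMT10plex mass spectrometry, three biological replicates, mitosis taken 0.5 h after nocodazole release, G1/S directly after double thymidine block.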

Row | Sequence | melting temperature (HeLa Kyoto [1]; cell cycle stage: G1/S) | melting temperature (HeLa Kyoto [1]; cell cycle stage: mitosis) | thermal stability score (HeLa Kyoto [2]; [5]) | thermal stability score (HeLa Kyoto [2]; cell cycle stage: mitosis) | solubility in G1/S (log2) (HeLa Kyoto [3]) | solubility change mitosis (log2) (HeLa Kyoto [4])
1 | MAAPCEGQAFAVGVEKNWGAVVRSPEGTPQKIRQLIDEGIAPEEGGVDAKDTSATSQSVNGSPQAEQPSLESTSKEAFFSRVETFSSLKWAGKPFELSPLVCAKYGWVTVECDMLKCSSCQAFLCASLQPAFDFDRYKQRCAELKKALCTAHEKFCFWPDSPSPDRFGMLPLDEPAILVSEFLDRFQSLCHLDLQLPSLRPEDLKTMCLTEDKISLLLHLLEDELDHRTDERKTTIKLGSDIQVHVTACILSVCGWACSSSLESMQLSLITCSQCMRKVGLWGFQQIESSMTDLDASFGLTSSPIPGLEGRPERLPLVPESPRRMMTRSQDATFSPGSEQAEKSPGPIVSRTRSWDSSSPVDRPEPEAASPTTRTRPVTRSMGTGDTPGLEVPSSPLRKAKRARLCSSSSSDTSSRSFFDPTSQHRDWCPWVNITLGKESRENGGTEPDASAPAEPGWKAVLTILLAHKQSSQPAETDSMSLSEKSRKVFRIFRQWESLCSC [ZC3HC1] | 49.3 °C | 49.2 °C | 0.508 | 1.84 | 0.00532 | -0.163
2 | MARHVFLTGPPGVGKTTLIHKASEVLKSSGVPVDGFYTEEVRQGGRRIGFDVVTLSGTRGPLSRVGLEPPPGKRECRVGQYVVDLTSFEQLALPVLRNADCSSGPGQRVCVIDEIGKMELFSQLFIQAVRQTLSTPGTIILGTIPVPKGKPLALVEEIRNRKDVKVFNVTKENRNHLLPDIVTCVQSSRK [NTPCR] | 52.6 °C | 53.4 °C | 1.23 | 0.656 | 0.569 | 0.0287
3 | MSKSESPKEPEQLRKLFIGGLSFETTDESLRSHFEQWGTLTDCVVMRDPNTKRSRGFGFVTYATVEEVDAAMNARPHKVDGRVVEPKRAVSREDSQRPGAHLTVKKIFVGGIKEDTEEHHLRDYFEQYGKIEVIEIMTDRGSGKKRGFAFVTFDDHDSVDKIVIQKYHTVNGHNCEVRKALSKQEMASASSSQRGRSGSGNFGGGRGGGFGGNDNFGRGGNFSGRGGFGGSRGGGGYGGSGDGYNGFGNDGGYGGGGPGYSGGSRGYGSGGQGYGNQGSGYGGSGSYDSYNNGGGGGFGGGSGSNFGGGGSYNDFGNYNNQSSNFGPMKGGNFGGRSSGPYGGGGQYFAKPRNQGGYGGSSSSSSYGSGRRF [HNRNPA1] | 49.4 °C | 50.1 °C | -0.92 | 1.18 | -0.184 | 0.275
4 | MAIRKKSTKSPPVLSHEFVLQNHADIVSCVAMVFLLGLMFEITAKASIIFVTLQYNVTLPATEEQATESVSLYYYGIKDLATVFFYMLVAIIIHAVIQEYMLDKINRRMHFSKTKHSKFNESGQLSAFYLFACVWGTFILISENYISDPTILWRAYPHNLMTFQMKFFYISQLAYWLHAFPELYFQKTKKEDIPRQLVYIGLYLFHIAGAYLLNLNHLGLVLLVLHYFVEFLFHISRLFYFSNEKYQKGFSLWAVLFVLGRLLTLILSVLTVGFGLARAENQKLDFSTGNFNVLAVRIAVLASICVTQAFMMWKFINFQLRRWREHSAFQAPAVKKKPTVTKGRSSKKGTENGVNGTLTSNVADSPRNKKEKSS [TRAM1] | 52.2 °C | 52.6 °C | -0.164 | -0.999 | -0.0229 | -0.0373
5 | MMLRGNLKQVRIEKNPARLRALESAVGESEPAAAAAMALALAGEPAPPAPAPPEDHPDEEMGFTIDIKSFLKPGEKTYTQRCRLFVGNLPTDITEEDFKRLFERYGEPSEVFINRDRGFGFIRLESRTLAEIAKAELDGTILKSRPLRIRFATHGAALTVKNLSPVVSNELLEQAFSQFGPVEKAVVVVDDRGRATGKGFVEFAAKPPARKALERCGDGAFLLTTTPRPVIVEPMEQFDDEDGLPEKLMQKTQQYHKEREQPPRFAQPGTFEFEYASRWKALDEMEKQQREQVDRNIREAKEKLEAEMEAARHEHQLMLMRQDLMRRQEELRRLEELRNQELQKRKQIQLRHEEEHRRREEEMIRHREQEELRRQQEGFKPNYMENREQEMRMGDMGPRGAINMGDAFSPAPAGNQGPPPMMGMNMNNRATIPGPPMGPGPAMGPEGAANMGTPMMPDNGAVHNDRFPQGPPSQMGSPMGSRTGSETPQAPMSGVGPVSGGPGGFGRGSQGGNFEGPNKRRRY [PSPC1] | 49.1 °C | 48.7 °C | 1 | 1.79 | 0.205 | 0.177
6 | MSHGPSPRLAESPQLSKGSLLTILGSPSPERMGPADSLPPTPPSGTPSPGPPPALPLPPAPALLADGDWESREELRLRELEEARARAAQMEKTMRRWSDCTANWREKWSKVRAERNRAREEVRQLRQRLDALTKELAGARRERQEAQGECEARGRELARLRGARGVADQTRDGPEPEAEREPVRDVGSERPPGSQELELVESLLKSMPEESEDCWEARSLGAGGPRGSSGRQERSRLPWEDTAATEEEASKLTALRLRLDESQKVLLKEREDKLALSRNIEKLEGELSQWKIKYEELSKTKQEMLKQLSILKEAHQDELGRMSEDLEDELGARSSMDRKMAELRGEMERLQAENAAEWGRRERLETEKLGLERENKKLRAQVGDLEEALARRRRQTASALDCDLRASQAALFEKNKELADLKHVHGKLKKQFQEKVAELAHANRRVEQHEAEVKKLRLRVEELKKELAQAEDELDEAHNQARKLQRSLDEQTEQSENLQVQLEHLQSRLRRQQQNAPLFGKIRSARFGTEEAEDGTSDLDEDEDLQIQVA [CCDC102A] | 50.8 °C | 49.3 °C | -0.855 | -0.192 | 0.448 | 0.0825
